The values that follow come from patent publication US20240400651A1.

This assay concerns the target Spike proteins of the wild-type Wuhan-Hu-1 strain and the D614G, B.1.1.7, B.1.351, P.1, B.1.526 and. As to the kind of experiment: cell-based or functional assay.

B1: Mab #25 (antibody, V domains shown)
VH: EVQLVESGAEVKKPGESLKISCKGSGYTFTRYWIGWVRQMPGKGLEWMGIIYPGDSDTRYSPSFQGHVTISADKSISTAYLQWNSLKASDTAMYYCARLPQYCSNGVCQRWFDPWGQGTLVTVSS
VL: EIVLTQSPSSVSASVGDRVTITCRASQGISSWLAWYQQKPGKAPKLLIYAASSLQSGVPSRFSGSGSGTDFTLTISSLQPEDFATYYCQQGNSFPYTFGQGTNLEIK
B1 gave an IC50, infectivity assays using pseudoviruses of 0.05 to 0.2 µg/mL.
